Data set [1] concerns the molecule itself. Kind of data set: fluorescence cross-correlation spectroscopy (FCCS); self-interaction: living diploid yeast cells with one allele fused to (3)myeGFP and one to (3)mCherry, cytoplasm; apparent (effective) KD, to be taken as the upper limit since complexes of one colour are not seen.
Data set [2] deals with the molecule itself. Kind of data set: fluorescence cross-correlation spectroscopy (FCCS); in the cytoplasm of living yeast cells; first-named protein green (3myeGFP or 1myeGFP; eGFP for Don1), second red (3mCherry); self-interaction in diploid strains with one allele of each colour; apparent or effective KD (Kdeff) from single-cell measurements; only Kdeff values < 1000 nM are shown; values for self-interactions are upper limits.

The target of another data set is T1, Pan1 (S. cerevisiae, UniProt P32521 1-1480).
T1 construct: Pan1, S. cerevisiae; also called Pan1-1myeGFP; Pan1-3mCherry; source: chromosomally tagged at the endogenous locus, in the cytoplasm of living S. cerevisiae cells
T1 sequence (looked up): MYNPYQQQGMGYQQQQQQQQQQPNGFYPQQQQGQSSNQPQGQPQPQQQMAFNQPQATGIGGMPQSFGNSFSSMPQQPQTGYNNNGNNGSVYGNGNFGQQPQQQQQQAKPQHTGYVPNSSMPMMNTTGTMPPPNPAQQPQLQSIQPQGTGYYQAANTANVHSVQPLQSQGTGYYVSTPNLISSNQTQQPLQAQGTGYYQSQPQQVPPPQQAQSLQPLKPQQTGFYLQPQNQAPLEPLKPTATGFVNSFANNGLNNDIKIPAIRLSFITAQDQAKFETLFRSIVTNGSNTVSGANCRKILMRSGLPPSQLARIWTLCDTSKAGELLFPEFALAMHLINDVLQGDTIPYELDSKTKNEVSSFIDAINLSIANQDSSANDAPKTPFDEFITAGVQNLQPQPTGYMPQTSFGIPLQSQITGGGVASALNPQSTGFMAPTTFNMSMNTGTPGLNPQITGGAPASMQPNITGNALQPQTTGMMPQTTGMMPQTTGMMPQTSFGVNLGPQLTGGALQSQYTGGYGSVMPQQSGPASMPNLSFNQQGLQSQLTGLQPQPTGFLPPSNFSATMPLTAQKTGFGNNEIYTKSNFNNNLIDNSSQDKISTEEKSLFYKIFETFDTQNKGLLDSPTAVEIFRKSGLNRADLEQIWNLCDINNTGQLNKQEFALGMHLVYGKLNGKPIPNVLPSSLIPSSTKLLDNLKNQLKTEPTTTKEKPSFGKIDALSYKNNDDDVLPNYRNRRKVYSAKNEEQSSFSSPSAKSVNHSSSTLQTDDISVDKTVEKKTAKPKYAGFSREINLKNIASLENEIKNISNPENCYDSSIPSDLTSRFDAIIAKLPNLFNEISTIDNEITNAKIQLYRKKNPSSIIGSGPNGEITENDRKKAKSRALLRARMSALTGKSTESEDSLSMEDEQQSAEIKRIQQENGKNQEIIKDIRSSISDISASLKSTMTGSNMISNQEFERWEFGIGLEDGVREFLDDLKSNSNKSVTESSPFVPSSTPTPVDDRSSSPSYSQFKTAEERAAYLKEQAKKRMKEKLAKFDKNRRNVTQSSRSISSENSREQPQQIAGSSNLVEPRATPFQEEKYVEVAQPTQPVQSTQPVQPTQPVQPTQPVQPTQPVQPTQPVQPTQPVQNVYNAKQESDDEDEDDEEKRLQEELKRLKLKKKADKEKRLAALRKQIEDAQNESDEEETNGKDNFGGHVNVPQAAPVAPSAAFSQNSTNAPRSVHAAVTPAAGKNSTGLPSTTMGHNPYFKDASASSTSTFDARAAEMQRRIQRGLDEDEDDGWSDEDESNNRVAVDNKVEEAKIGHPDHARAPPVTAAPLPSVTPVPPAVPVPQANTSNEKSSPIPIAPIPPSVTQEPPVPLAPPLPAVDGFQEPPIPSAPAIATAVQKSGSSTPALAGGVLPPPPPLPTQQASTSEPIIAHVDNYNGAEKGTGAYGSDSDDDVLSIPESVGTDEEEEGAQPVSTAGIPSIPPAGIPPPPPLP
Described as above. As to conditions: partners not purified.

Data set [3] concerns the molecule itself. Kind of data set: FCS molecular brightness (counts per particle per second); living yeast cells, cytoplasm; brightness of GFP-tagged particles compared with 3myeGFP and Ent2-3myeGFP (monomers) or with wild-type Ede1; average of all particles.

B1: ede1Δ591–1381 (myeGFP / mCherry fusions) (domain or fragment, S. cerevisiae, UniProt P34216 1-590, looked up)
chain: MASITFRTPLSSQEQAFYNQKFHQLDTEDLGVVTGEAVRPLFASSGLPGQLLSQVWATVDIDNKGFLNLNEFSAALRMIAQLQNAPNQPISAALYESTPTQLASFSINQNPAPMQSGSATGNTNNTDIPALSSNDIAKFSQLFDRTAKGAQTVAGDKAKDIFLKARLPNQTLGEIWALCDRDASGVLDKSEFIMAMYLIQLCMSHHPSMNTPPAVLPTQLWDSIRLEPVVVNQPNRTTPLSANSTGVSSLTRHSTISRLSTGAFSNAASDWSLSFEKKQQFDAIFDSLDKQHAGSLSSAVLVPFFLSSRLNQETLATIWDLADIHNNAEFTKLEFAIAMFLIQKKNAGVELPDVIPNELLQSPALGLYPPNPLPQQQSAPQIAIPSRASKPSLQDMPHQVSAPAVNTQPTVPQVLPQNSNNGSLNDLLALNPSFSSPSPTKAQTVVQNNTNNSFSYDNNNGQATLQQQQPQQPPPLTHSSSGLKKFTPTSNFGQSIIKEEPEEQEQLRESSDTFSAQPPPVPKHASSPVKRTASTTLPQVPNFSVFSMPAGAATSAATGAAVGAAVGAAALGASAFSRSSNNAFKNQDLF
notes: 1myeGFP fusion for FCS; diploid with one myeGFP and one mCherry allele for FCCS; Each copy carries one tag; also called ede1^Δ591–1391; source: S. cerevisiae, endogenously expressed truncation mutant, in living cells; not shown: myeGFP, C-terminal, kept; mCherry, C-terminal, kept
Regarding B1, the Kd in data set [1] was more than 1000 nM.

B2: Bbc1 (natural protein, S. cerevisiae, UniProt P47068 1-1157, looked up)
chain: MSEPEVPFKVVAQFPYKSDYEDDLNFEKDQEIIVTSVEDAEWYFGEYQDSNGDVIEGIFPKSFVAVQGSEVGKEAESSPNTGSTEQRTIQPEVEQKDLPEPISPETKKETLSGPVPVPAATVPVPAATVPVPAATAVSAQVQHDSSSGNGERKVPMDSPKLKARLSMFNQDITEQVPLPKSTHLDLENIPVKKTIVADAPKYYVPPGIPTNDTSNLERKKSLKENEKKIVPEPINRAQVESGRIETENDQLKKDLPQMSLKERIALLQEQQRLQAAREEELLRKKAKLEQEHERSAVNKNEPYTETEEAEENEKTEPKPEFTPETEHNEEPQMELLAHKEITKTSREADEGTNDIEKEQFLDEYTKENQKVEESQADEARGENVAEESEIGYGHEDREGDNDEEKEEEDSEENRRAALRERMAKLSGASRFGAPVGFNPFGMASGVGNKPSEEPKKKQHKEKEEEEPEQLQELPRAIPVMPFVDPSSNPFFRKSNLSEKNQPTETKTLDPHATTEHEQKQEHGTHAYHNLAAVDNAHPEYSDHDSDEDTDDHEFEDANDGLRKHSMVEQAFQIGNNESENVNSGEKIYPQEPPISHRTAEVSHDIENSSQNTTGNVLPVSSPQTRVARNGSINSLTKSISGENRRKSINEYHDTVSTNSSALTETAQDISMAAPAAPVLSKVSHPEDKVPPHPVPSAPSAPPVPSAPSVPSAPPVPPAPPALSAPSVPPVPPVPPVSSAPPALSAPSIPPVPPTPPAPPAPPAPLALPKHNEVEEHVKSSAPLPPVSEEYHPMPNTAPPLPRAPPVPPATFEFDSEPTATHSHTAPSPPPHQNVTASTPSMMSTQQRVPTSVLSGAEKESRTLPPHVPSLTNRPVDSFHESDTTPKVASIRRSTTHDVGEISNNVKIEFNAQERWWINKSAPPAISNLKLNFLMEIDDHFISKRLHQKWVVRDFYFLFENYSQLRFSLTFNSTSPEKTVTTLQERFPSPVETQSARILDEYAQRFNAKVVEKSHSLINSHIGAKNFVSQIVSEFKDEVIQPIGARTFGATILSYKPEEGIEQLMKSLQKIKPGDILVIRKAKFEAHKKIGKNEIINVGMDSAAPYSSVVTDYDFTKNKFRVIENHEGKIIQNSYKLSHMKSGKLKVFRIVARGYVGW
notes: Bbc1, S. cerevisiae; also called Bbc1-3myeGFP; Bbc1-3mCherry; source: chromosomally tagged at the endogenous locus, in the cytoplasm of living S. cerevisiae cells
B2: in data set [2], the Kd was found to be 115 nM.

B3: Sla2 (natural protein, S. cerevisiae, UniProt P33338 1-968, looked up)
chain: MSRIDSDLQKALKKACSVEETAPKRKHVRACIVYTWDHQSSKAVFTTLKTLPLANDEVQLFKMLIVLHKIIQEGHPSALAEAIRDRDWIRSLGRVHSGGSSYSKLIREYVRYLVLKLDFHAHHRGFNNGTFEYEEYVSLVSVSDPDEGYETILDLMSLQDSLDEFSQIIFASIQSERRNTECKISALIPLIAESYGIYKFITSMLRAMHRQLNDAEGDAALQPLKERYELQHARLFEFYADCSSVKYLTTLVTIPKLPVDAPDVFLINDVDESKEIKFKKREPSVTPARTPARTPTPTPPVVAEPAISPRPVSQRTTSTPTGYLQTMPTGATTGMMIPTATGAANAIFPQATAQMQPDFWANQQAQFANEQNRLEQERVQQLQQQQAQQELFQQQLQKAQQDMMNMQLQQQNQHQNDLIALTNQYEKDQALLQQYDQRVQQLESEITTMDSTASKQLANKDEQLTALQDQLDVWERKYESLAKLYSQLRQEHLNLLPRFKKLQLKVNSAQESIQKKEQLEHKLKQKDLQMAELVKDRDRARLELERSINNAEADSAAATAAAETMTQDKMNPILDAILESGINTIQESVYNLDSPLSWSGPLTPPTFLLSLLESTSENATEFATSFNNLIVDGLAHGDQTEVIHCVSDFSTSMATLVTNSKAYAVTTLPQEQSDQILTLVKRCAREAQYFFEDLMSENLNQVGDEEKTDIVINANVDMQEKLQELSLAIEPLLNIQSVKSNKETNPHSELVATADKIVKSSEHLRVDVPKPLLSLALMIIDAVVALVKAAIQCQNEIATTTSIPLNQFYLKNSRWTEGLISAAKAVAGATNVLITTASKLITSEDNENTSPEQFIVASKEVAASTIQLVAASRVKTSIHSKAQDKLEHCSKDVTDACRSLGNHVMGMIEDDHSTSQQQQPLDFTSEHTLKTAEMEQQVEILKLEQSLSNARKRLGEIRRHAYYNQDDD
notes: Sla2, S. cerevisiae; also called Sla2-3myeGFP; Sla2-3mCherry; source: chromosomally tagged at the endogenous locus, in the cytoplasm of living S. cerevisiae cells
Consider B3, for which the figures for the Kd (in data set [2]; with Pan1) were 133 nM and 539 nM, respectively.

B4: Ede1 (Ede1-3myeGFP / Ede1-3mCherry) (natural protein, S. cerevisiae, UniProt P34216 1-1381, looked up)
chain: MASITFRTPLSSQEQAFYNQKFHQLDTEDLGVVTGEAVRPLFASSGLPGQLLSQVWATVDIDNKGFLNLNEFSAALRMIAQLQNAPNQPISAALYESTPTQLASFSINQNPAPMQSGSATGNTNNTDIPALSSNDIAKFSQLFDRTAKGAQTVAGDKAKDIFLKARLPNQTLGEIWALCDRDASGVLDKSEFIMAMYLIQLCMSHHPSMNTPPAVLPTQLWDSIRLEPVVVNQPNRTTPLSANSTGVSSLTRHSTISRLSTGAFSNAASDWSLSFEKKQQFDAIFDSLDKQHAGSLSSAVLVPFFLSSRLNQETLATIWDLADIHNNAEFTKLEFAIAMFLIQKKNAGVELPDVIPNELLQSPALGLYPPNPLPQQQSAPQIAIPSRASKPSLQDMPHQVSAPAVNTQPTVPQVLPQNSNNGSLNDLLALNPSFSSPSPTKAQTVVQNNTNNSFSYDNNNGQATLQQQQPQQPPPLTHSSSGLKKFTPTSNFGQSIIKEEPEEQEQLRESSDTFSAQPPPVPKHASSPVKRTASTTLPQVPNFSVFSMPAGAATSAATGAAVGAAVGAAALGASAFSRSSNNAFKNQDLFADGEASAQLSNATTEMANLSNQVNSLSKQASITNDKKSRATQELKRVTEMKNSIQIKLNNLRSTHDQNVKQTEQLEAQVLQVNKENETLAQQLAVSEANYHAAESKLNELTTDLQESQTKNAELKEQITNLNSMTASLQSQLNEKQQQVKQERSMVDVNSKQLELNQVTVANLQKEIDGLGEKISVYLTKQKELNDYQKTVEEQHAQLQAKYQDLSNKDTDLTDREKQLEERNRQIEEQENLYHQHVSKLQEMFDDLSQRKASFEKADQELKERNIEYANNVRELSERQMNLAMGQLPEDAKDIIAKSASNTDTTTKEATSRGNVHEDTVSKFVETTVENSNLNVNRVKDDEEKTERTESDVFDRDVPTLGSQSDSENANTNNGTQSGNETANPNLTETLSDRFDGDLNEYGIPRSQSLTSSVANNAPQSVRDDVELPETLEERDTINNTANRDNTGNLSHIPGEWEATPATASTDVLSNETTEVIEDGSTTKRANSNEDGESVSSIQESPKISAQPKAKTINEEFPPIQELHIDESDSSSSDDDEFEDTREIPSATVKTLQTPYNAQPTSSLEIHTEQVIKYPAPGTSPSHNEGNSKKASTNSILPVKDEFDDEFAGLEQAAVEEDNGADSESEFENVANAGSMEQFETIDHKDLDDELQMNAFTGTLTSSSNPTIPKPQVQQQSTSDPAQVSNDEWDEIFAGFGNSKAEPTKVATPSIPQQPIPLKNDPIVDASLSKGPIVNRGVATTPKSLAVEELSGMGFTEEEAHNALEKCNWDLEAATNFLLDSA
notes: Ede1, S. cerevisiae, homolog of mammalian Eps15; expressed from its own locus; also called wild-type Ede1; full-length Ede1; source: S. cerevisiae, chromosomally tagged at the endogenous locus, in living cells; not shown: 3myeGFP, C-terminal, kept; 3mCherry, C-terminal, kept
As to B4, the Kd in data set [1] was 127 nM. Further, the “molecular brightness per particle relative to 3myeGFP” value in data set [3] is approximately 2.5 fold.

Source of the values: article PMC4299599, “Quantification of cytosolic interactions identifies Ede1 oligomers as key organizers of endocytosis” (Molecular Systems Biology, 2014).
